Reference: patent publication US20060193849A1 (ANTISOMA, published 2006)

B1: diabody Db 4.9M (other)
chain 1: QVQLVQSGAEVKKPGASVKVSCKASGYTFSAYWIEWVRQAPGKGLEWVGEILPGSNNSRYNEKFKGRVTVTADTSTNTAYMELSSLRSEDTAVYYCARSYDFAWFAYWGQGTLVTVSSGGGGSDIQMTQSPSSLSASVGDRVTITCKSSQSLLYSSNQKIYLAWYQQKPGKAPKLLIYWASTRESGVPSRFSGSGSGTDFTFTISSLQPEDIATYYCQQYYRYPRTFGQGTKVEIKR
chain 2: B1 chain 1
notes: also called diabody 4.9
B2: huHMFG1 scFv mutant 4.9M (stability engineered huHMFG1-scFv/Clone 4.9) (scFv)
scFv: QVQLVQSGAEVKKPGASVKVSCKASGYTFSAYWIEWVRQAPGKGLEWVGEILPGSNNSRYNEKFKGRVTVTADTSTNTAYMELSSLRSEDTAVYYCARSYDFAWFAYWGQGTLVTVSSGGGGSGGGGSGGGGSDIQMTQSPSSLSASVGDRVTITCKSSQSLLYSSNQKIYLAWYQQKPGKAPKLLIYWASTRESGVPSRFSGSGSGTDFTFTISSLQPEDIATYYCQQYYRYPRTFGQGTKVEIKR
notes: also called scFv 4.9M; HMFG1-scFv 4.9M

Experiments:
[1] = molecular target: T1, MUC-1 gene product, the membrane mucin glycoprotein (polymorphic epithelial mucin or PEM) (human, UniProt P15941 24-1255); assay: flow cytometry equilibrium binding on MCF7 cells; reference scFv 4.9M
T1 construct: whole, on cells; SKOV-3 is also named in the method
Experimental: (§1) Bound antibodies were detected under the same conditions, as described in the section entitled binding assays above.
(§2) The median fluorescence intensity (MFI) was determined as described in the binding assays section above and the background fluorescence was subtracted. Equilibrium constants were determined by using the Marquardt-Levenberg algorithm for non-linear regression with the GraphPad Prism version 3.0a for Macintosh (GraphPad Software, San Diego, Calif.).

[2] = molecular target: T1, MUC-1 gene product, the membrane mucin …; assay: flow cytometry equilibrium binding on MCF7 cells, non-linear regression; 0 h at 37 C
Experimental: as §1
After two final washing steps in 200 μl of FACS buffer, the cells were fixed in PBS buffer containing 2% paraformaldehyde for 15 minutes at room temperature and analysed by flow cytometry.
as §2

[3] = molecular target: T1, MUC-1 gene product, the membrane mucin …; assay: flow cytometry equilibrium binding on MCF7 cells; after pre-incubation in PBS for 1 h at 37 C against no pre-incubation
Experimental: as §1, §2

[4] = molecular target: T1, MUC-1 gene product, the membrane mucin …; assay: flow cytometry equilibrium binding on MCF7 cells, non-linear regression; after pre-incubation in PBS for 1 h at 37 C
Experimental: as §1, §2

T1 sequence (P15941 24-1255): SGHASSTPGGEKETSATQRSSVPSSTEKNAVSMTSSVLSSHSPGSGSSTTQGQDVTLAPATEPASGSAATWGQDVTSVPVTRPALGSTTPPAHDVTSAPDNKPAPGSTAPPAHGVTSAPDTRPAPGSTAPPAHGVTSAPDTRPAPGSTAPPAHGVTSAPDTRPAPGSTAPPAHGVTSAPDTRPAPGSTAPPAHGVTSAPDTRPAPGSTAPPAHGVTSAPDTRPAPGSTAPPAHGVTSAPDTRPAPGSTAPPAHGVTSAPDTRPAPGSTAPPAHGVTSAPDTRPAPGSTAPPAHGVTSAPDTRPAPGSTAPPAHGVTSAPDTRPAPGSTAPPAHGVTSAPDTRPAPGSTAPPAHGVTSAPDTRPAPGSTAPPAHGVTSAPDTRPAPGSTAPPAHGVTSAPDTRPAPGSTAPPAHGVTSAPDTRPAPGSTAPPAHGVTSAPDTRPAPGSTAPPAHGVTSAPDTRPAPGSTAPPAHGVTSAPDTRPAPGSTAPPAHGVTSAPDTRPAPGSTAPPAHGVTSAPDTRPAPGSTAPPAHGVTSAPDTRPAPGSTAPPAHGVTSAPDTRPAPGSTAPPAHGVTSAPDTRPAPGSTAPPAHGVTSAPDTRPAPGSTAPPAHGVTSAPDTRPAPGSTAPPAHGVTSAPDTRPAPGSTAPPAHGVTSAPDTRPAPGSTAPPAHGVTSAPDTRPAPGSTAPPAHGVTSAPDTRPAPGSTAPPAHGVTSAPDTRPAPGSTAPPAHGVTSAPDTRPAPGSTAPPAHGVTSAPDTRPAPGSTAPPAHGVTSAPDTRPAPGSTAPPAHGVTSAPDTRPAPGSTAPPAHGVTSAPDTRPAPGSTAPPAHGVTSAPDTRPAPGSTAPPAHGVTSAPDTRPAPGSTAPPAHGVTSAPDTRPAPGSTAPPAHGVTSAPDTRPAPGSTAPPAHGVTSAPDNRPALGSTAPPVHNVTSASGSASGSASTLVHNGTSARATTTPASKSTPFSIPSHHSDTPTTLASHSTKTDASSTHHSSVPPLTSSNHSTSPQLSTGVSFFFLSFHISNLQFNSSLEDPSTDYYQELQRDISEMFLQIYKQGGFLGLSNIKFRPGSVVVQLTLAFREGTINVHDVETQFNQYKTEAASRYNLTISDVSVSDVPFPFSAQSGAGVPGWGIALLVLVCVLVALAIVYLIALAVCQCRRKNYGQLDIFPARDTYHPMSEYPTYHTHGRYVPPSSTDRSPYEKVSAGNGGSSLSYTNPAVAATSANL

Row | Binder | fold higher affinity than the corresponding scFv 4.9M [1] | Kd [2] | fold decrease in antigen binding affinity after 1 hour at 37° C. in PBS [3] | Kd [4]
1 | B1 | 13 fold | 8 nM |  | 
2 | B2 |  | 103 nM | 1.9 fold | 195 nM
